Data taken from patent publication US20170037111A1, “Novel peptides and combination of peptides for use in immunotherapy against ovarian cancer and other cancers” (immatics biotechnologies GmbH, priority 2015, published 2017).

These substances were tested against HLA-A*02:01 (Homo sapiens, UniProt P04439, D140Y/D185E/D98H/E176V/E277Q/G131W/G231S/I119V/I121R/I166T/I218V/L300P/L318F/N151K/N90K/P208A/P217A/Q86G/Q94H/R138H/R169H/T345S) (assay: MHC binding assay (UV-ligand exchange, β2m ELISA, peptide exchange yield)). Conditions: MHC class I binding score; binding to HLA-A*02:01 ranged by peptide exchange yield (UV-ligand exchange, β2m ELISA).
Summary of the method: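 Binding is expressed as peptide exchange yield: stabilized MHC complexes were quantified by β2m ELISA, with a 450 nm TMB read-out on streptavidin-coated plates. Complexes came from UV-ligand exchange, where UV irradiation cleaves a photolabile peptide so the candidate peptide can load.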

Substance	Peptide exchange
438 (KLLPLAGLYL; listed as Homo sapiens) [compound 438]	″++++″ (≧75% = ++++)
439 (YLLQEIYGI; listed as Homo sapiens) [compound 439]	″+++″ (≧50% = +++)
440 (ALADGVTMQV; listed as Homo sapiens) [compound 440]	″++″ (≧20% = ++)
441 (ALLENPKMEL; listed as Homo sapiens) [compound 441]	″+++″ (≧50% = +++)
442 (GLLGGGGVLGV; listed as Homo sapiens) [compound 442]	″+++″ (≧50% = +++)
444 (GLLRDEALAEV; listed as Homo sapiens) [compound 444]	″+++″ (≧50% = +++)
447 (QLVPALAKV; listed as Homo sapiens) [compound 447]	″++″ (≧20% = ++)
448 (NLLETKLQL; listed as Homo sapiens) [compound 448]	″+++″ (≧50% = +++)
449 (KLAEGLDIQL; listed as Homo sapiens) [compound 449]	″+++″ (≧50% = +++)
450 (FMIDASVHPTL; listed as Homo sapiens) [compound 450]	″+++″ (≧50% = +++)
451 (LLLLDTVTMQV; listed as Homo sapiens) [compound 451]	″++″ (≧20% = ++)
452 (ILLEHGADPNL; listed as Homo sapiens) [compound 452]	″+++″ (≧50% = +++)
453 (KLLEATSAV; listed as Homo sapiens) [compound 453]	″++″ (≧20% = ++)
455 (SLLKEPQKVQL; listed as Homo sapiens) [compound 455]	″++″ (≧20% = ++)
456 (LLIGHLERV; listed as Homo sapiens) [compound 456]	″+++″ (≧50% = +++)
457 (SLLPGNLVEKV; listed as Homo sapiens) [compound 457]	″+++″ (≧50% = +++)
458 (SLIDKLYNI; listed as Homo sapiens) [compound 458]	″++″ (≧20% = ++)
459 (ALITEVVRL; listed as Homo sapiens) [compound 459]	″++″ (≧20% = ++)

Substance	Peptide exchange
461 (VMFRTPLASV; listed as Homo sapiens) [compound 461]	″++″ (≧20% = ++)
462 (KLAKQPETV; listed as Homo sapiens) [compound 462]	″+++″ (≧50% = +++)
464 (ALNDCIYSV; listed as Homo sapiens) [compound 464]	″+++″ (≧50% = +++)
465 (QLCDLNAEL; listed as Homo sapiens) [compound 465]	″+++″ (≧50% = +++)
466 (VLIANLEKL; listed as Homo sapiens) [compound 466]	″++++″ (≧75% = ++++)
467 (FLAKDFNFL; listed as Homo sapiens) [compound 467]	″+++″ (≧50% = +++)
468 (YLRSVGDGETV; listed as Homo sapiens) [compound 468]	″+++″ (≧50% = +++)
469 (YLASDEITTV; listed as Homo sapiens) [compound 469]	″+++″ (≧50% = +++)
471 (YLYNNMIAKI; listed as Homo sapiens) [compound 471]	″+++″ (≧50% = +++)
472 (KLLEVSDDPQV; listed as Homo sapiens) [compound 472]	″+++″ (≧50% = +++)
473 (AMATESILHFA; listed as Homo sapiens) [compound 473]	″+++″ (≧50% = +++)
474 (YLDPALELGPRNV; listed as Homo sapiens) [compound 474]	″+++″ (≧50% = +++)
475 (LLLNEEALAQI; listed as Homo sapiens) [compound 475]	″+++″ (≧50% = +++)
476 (ALMERTGYSMV; listed as Homo sapiens) [compound 476]	″+++″ (≧50% = +++)
477 (ALLPASGQIAL; listed as Homo sapiens) [compound 477]	″+++″ (≧50% = +++)
478 (YLLHEKLNL; listed as Homo sapiens) [compound 478]	″+++″ (≧50% = +++)
479 (SLFGNSGILENV; listed as Homo sapiens) [compound 479]	″+++″ (≧50% = +++)
480 (ALLEDSCHYL; listed as Homo sapiens) [compound 480]	″+++″ (≧50% = +++)

Now from value to substance:

Peptide exchange	Substance
″+++″ (≧50% = +++)	481 (GLIEDYEALL; listed as Homo sapiens) [compound 481]
″+++″ (≧50% = +++)	484 (SLIEKVTQL; listed as Homo sapiens) [compound 484]
″+++″ (≧50% = +++)	485 (NVPDSFNEV; listed as Homo sapiens) [compound 485]
″+++″ (≧50% = +++)	486 (AVMESIQGV; listed as Homo sapiens) [compound 486]
″+++″ (≧50% = +++)	487 (LLINSVFHV; listed as Homo sapiens) [compound 487]
″+++″ (≧50% = +++)	488 (FLAEDPKVTL; listed as Homo sapiens) [compound 488]
″+++″ (≧50% = +++)	490 (FLLQHVQEL; listed as Homo sapiens) [compound 490]
″++″ (≧20% = ++)	491 (GLNDRSDAV; listed as Homo sapiens) [compound 491]
″+++″ (≧50% = +++)	492 (SLFDGFADGLGV; listed as Homo sapiens) [compound 492]
″+++″ (≧50% = +++)	493 (GLLGEKTQDLIGV; listed as Homo sapiens) [compound 493]
″++″ (≧20% = ++)	494 (ALQPEPIKV; listed as Homo sapiens) [compound 494]
″+++″ (≧50% = +++)	495 (FIFSEKPVFV; listed as Homo sapiens) [compound 495]
″+++″ (≧50% = +++)	496 (FLVEKQPPQV; listed as Homo sapiens) [compound 496]
″+++″ (≧50% = +++)	497 (GLLEKLTAI; listed as Homo sapiens) [compound 497]
″+++″ (≧50% = +++)	498 (KLWTGGLDNTV; listed as Homo sapiens) [compound 498]
″+++″ (≧50% = +++)	500 (SLMEDQVLQL; listed as Homo sapiens) [compound 500]
″+++″ (≧50% = +++)	501 (LLDPNVKSIFV; listed as Homo sapiens) [compound 501]
″+++″ (≧50% = +++)	502 (RLLAQVPGL; listed as Homo sapiens) [compound 502]
″+++″ (≧50% = +++)	503 (SLNHFTHSV; listed as Homo sapiens) [compound 503]
″++″ (≧20% = ++)	504 (GLSDGNPSL; listed as Homo sapiens) [compound 504]
″++″ (≧20% = ++)	505 (SLAPGDVVRQV; listed as Homo sapiens) [compound 505]

Peptide exchange	Substance
″+++″ (≧50% = +++)	506 (KLLGKVETA; listed as Homo sapiens) [compound 506]
″+++″ (≧50% = +++)	507 (KLIDDQDISISL; listed as Homo sapiens) [compound 507]
″+++″ (≧50% = +++)	508 (ILAQEQLVVGV; listed as Homo sapiens) [compound 508]
″+++″ (≧50% = +++)	509 (FLFDTKPLIV; listed as Homo sapiens) [compound 509]
″++″ (≧20% = ++)	510 (KLYSVVSQL; listed as Homo sapiens) [compound 510]
″+++″ (≧50% = +++)	512 (SLSEIVPCL; listed as Homo sapiens) [compound 512]
″++″ (≧20% = ++)	513 (SLWPSPEQL; listed as Homo sapiens) [compound 513]
″+++″ (≧50% = +++)	514 (ILVDWLVQV; listed as Homo sapiens) [compound 514]
″+++″ (≧50% = +++)	515 (LLQELVLFL; listed as Homo sapiens) [compound 515]
″++″ (≧20% = ++)	516 (AVGPASILKEV; listed as Homo sapiens) [compound 516]
″+++″ (≧50% = +++)	517 (LLMPIPEGLTL; listed as Homo sapiens) [compound 517]
″+++″ (≧50% = +++)	519 (GLLHLTLLL; listed as Homo sapiens) [compound 519]
″+″ (≧10% = +)	520 (LAVHPSGVAL; listed as Homo sapiens) [compound 520]
″+++″ (≧50% = +++)	521 (MLLTKLPTI; listed as Homo sapiens) [compound 521]
″++″ (≧20% = ++)	522 (TLWYRSPEV; listed as Homo sapiens) [compound 522]
″++″ (≧20% = ++)	523 (YQIPRTFTL; listed as Homo sapiens) [compound 523]
″++″ (≧20% = ++)	524 (ALIENLTHQI; listed as Homo sapiens) [compound 524]
″+++″ (≧50% = +++)	525 (VLLEAGEGLVTI; listed as Homo sapiens) [compound 525]
″++″ (≧20% = ++)	526 (RLAEVGQYEQV; listed as Homo sapiens) [compound 526]
″++++″ (≧75% = ++++)	527 (FLLEPGNLEV; listed as Homo sapiens) [compound 527]
